How the values were obtained:
integrin on U87MG cells = assay: cell-based or functional assay
[1] = biological target: T1, integrin alphaVbeta1 protein (R&D systems) (human, UniProt P06756 31-992; P05556 21-728); assay: ELISA, integrin coated at 5 µg/ml, FLAG-Ang2 at 10 µg/ml, anti-FLAG-HRP
T1 construct: Bought recombinant heterodimer coated on the ELISA plate; also called αVβ1

[2] = biological target: T2, integrin alphaVbeta3 protein (R&D systems) (human, UniProt P06756 31-992; P05106 27-718); assay: as above
T2 construct: Bought recombinant heterodimer coated on the ELISA plate; also called αVβ3; integrin (αVβ3)
T2 sequence (P06756 31-992 limits assumed, chain 1 of 2): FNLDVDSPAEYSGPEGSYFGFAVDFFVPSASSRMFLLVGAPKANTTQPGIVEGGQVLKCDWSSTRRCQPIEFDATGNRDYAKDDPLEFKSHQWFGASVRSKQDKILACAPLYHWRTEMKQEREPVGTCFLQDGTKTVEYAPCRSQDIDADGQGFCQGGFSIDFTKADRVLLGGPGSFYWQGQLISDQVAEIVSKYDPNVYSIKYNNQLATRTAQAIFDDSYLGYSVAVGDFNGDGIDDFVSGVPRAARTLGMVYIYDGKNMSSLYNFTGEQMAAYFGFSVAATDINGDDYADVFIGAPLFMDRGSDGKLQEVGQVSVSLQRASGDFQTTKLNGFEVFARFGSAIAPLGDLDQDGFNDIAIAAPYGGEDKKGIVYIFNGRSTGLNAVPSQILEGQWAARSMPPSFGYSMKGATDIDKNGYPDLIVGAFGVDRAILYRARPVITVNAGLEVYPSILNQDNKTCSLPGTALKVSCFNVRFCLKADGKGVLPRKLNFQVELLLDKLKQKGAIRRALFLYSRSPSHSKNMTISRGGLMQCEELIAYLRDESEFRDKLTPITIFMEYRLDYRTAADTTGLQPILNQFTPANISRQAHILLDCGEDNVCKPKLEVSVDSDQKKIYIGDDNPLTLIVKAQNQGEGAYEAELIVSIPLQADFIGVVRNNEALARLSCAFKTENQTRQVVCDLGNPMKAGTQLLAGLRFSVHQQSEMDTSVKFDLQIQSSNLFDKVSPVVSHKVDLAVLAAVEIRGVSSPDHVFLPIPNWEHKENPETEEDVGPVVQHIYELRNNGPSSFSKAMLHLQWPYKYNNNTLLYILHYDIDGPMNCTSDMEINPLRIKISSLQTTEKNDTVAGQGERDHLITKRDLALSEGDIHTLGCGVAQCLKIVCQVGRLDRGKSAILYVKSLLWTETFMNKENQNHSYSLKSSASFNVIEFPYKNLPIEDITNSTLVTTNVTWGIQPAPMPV
T2 sequence (P05106 27-718 limits assumed, chain 2 of 2): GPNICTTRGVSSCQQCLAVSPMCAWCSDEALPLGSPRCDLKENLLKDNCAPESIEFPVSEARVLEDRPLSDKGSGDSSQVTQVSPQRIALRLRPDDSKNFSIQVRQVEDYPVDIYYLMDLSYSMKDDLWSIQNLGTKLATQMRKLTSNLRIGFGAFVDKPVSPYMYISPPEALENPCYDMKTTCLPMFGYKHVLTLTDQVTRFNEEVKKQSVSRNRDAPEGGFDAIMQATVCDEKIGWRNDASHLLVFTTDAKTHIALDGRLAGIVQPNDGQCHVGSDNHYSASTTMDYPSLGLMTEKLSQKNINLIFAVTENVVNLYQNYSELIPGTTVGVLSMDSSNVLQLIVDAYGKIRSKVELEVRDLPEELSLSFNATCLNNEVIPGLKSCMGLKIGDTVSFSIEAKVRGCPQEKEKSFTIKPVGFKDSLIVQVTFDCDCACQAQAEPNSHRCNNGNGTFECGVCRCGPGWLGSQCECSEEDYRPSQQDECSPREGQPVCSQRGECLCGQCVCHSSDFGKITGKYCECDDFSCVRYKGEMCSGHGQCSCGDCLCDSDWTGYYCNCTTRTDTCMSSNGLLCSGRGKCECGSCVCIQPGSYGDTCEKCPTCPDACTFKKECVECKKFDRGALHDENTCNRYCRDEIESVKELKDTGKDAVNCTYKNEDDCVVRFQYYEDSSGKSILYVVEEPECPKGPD

[3] = biological target: T3, integrin alpha5beta1 protein (R&D systems) (human, UniProt P08648 42-995; P05556 21-728, limits assumed); assay: as above
T3 construct: Bought recombinant heterodimer coated on the ELISA plate; also called α5β1
T3 sequence (P08648 42-995 limits assumed, chain 1 of 2): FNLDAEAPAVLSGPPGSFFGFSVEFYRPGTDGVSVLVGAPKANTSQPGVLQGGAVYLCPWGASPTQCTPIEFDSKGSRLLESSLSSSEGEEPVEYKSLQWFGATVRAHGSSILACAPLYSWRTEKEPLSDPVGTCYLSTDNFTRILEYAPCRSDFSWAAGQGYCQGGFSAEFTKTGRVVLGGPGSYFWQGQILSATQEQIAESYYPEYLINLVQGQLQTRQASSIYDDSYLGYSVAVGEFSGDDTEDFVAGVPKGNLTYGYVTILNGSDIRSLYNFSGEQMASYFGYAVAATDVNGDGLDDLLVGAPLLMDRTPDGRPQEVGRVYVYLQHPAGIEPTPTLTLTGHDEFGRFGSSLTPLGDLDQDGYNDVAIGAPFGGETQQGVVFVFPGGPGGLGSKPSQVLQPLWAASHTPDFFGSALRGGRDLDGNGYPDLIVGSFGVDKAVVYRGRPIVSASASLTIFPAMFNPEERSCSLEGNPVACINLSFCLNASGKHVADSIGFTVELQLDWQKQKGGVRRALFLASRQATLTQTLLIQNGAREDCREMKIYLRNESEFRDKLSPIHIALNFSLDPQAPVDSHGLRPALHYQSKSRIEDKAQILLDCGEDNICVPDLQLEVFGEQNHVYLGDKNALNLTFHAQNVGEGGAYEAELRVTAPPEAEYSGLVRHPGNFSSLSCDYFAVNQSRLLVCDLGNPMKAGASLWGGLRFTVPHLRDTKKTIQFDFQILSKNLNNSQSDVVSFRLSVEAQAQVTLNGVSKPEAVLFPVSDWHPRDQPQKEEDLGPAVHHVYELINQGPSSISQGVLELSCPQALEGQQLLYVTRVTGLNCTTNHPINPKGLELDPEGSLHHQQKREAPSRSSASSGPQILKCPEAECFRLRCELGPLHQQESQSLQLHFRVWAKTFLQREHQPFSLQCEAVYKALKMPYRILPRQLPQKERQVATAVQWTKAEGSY
T3 sequence (P05556 21-728 limits assumed, chain 2 of 2): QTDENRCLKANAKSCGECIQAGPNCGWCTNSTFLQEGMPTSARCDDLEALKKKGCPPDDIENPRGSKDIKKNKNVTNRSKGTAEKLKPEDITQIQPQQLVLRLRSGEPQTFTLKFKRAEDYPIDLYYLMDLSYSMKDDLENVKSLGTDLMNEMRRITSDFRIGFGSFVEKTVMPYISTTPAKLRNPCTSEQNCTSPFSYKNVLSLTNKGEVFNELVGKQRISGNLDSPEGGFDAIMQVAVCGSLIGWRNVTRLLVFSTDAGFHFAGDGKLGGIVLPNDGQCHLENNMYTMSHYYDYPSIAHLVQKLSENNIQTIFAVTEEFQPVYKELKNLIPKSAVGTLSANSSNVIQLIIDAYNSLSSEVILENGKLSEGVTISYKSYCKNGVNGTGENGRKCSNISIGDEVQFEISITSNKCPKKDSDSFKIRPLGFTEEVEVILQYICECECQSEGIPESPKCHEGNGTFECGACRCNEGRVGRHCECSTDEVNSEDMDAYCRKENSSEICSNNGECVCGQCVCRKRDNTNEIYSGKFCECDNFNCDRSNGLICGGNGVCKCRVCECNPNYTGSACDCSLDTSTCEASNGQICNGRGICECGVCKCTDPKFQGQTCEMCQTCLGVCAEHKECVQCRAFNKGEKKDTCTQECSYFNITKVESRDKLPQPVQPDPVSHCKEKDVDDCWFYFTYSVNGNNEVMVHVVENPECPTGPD

[4] = biological target: T4, Tie2 proteins (Q02763, R&D systems) (UniProt Q02763 23-745, limits assumed); assay: ELISA, Tie2 coated, Ang2 proteins at 5 µg/ml
T4 construct: Bought protein coated on ELISA plates
T4 sequence (Q02763 23-745 limits assumed, one chain of several): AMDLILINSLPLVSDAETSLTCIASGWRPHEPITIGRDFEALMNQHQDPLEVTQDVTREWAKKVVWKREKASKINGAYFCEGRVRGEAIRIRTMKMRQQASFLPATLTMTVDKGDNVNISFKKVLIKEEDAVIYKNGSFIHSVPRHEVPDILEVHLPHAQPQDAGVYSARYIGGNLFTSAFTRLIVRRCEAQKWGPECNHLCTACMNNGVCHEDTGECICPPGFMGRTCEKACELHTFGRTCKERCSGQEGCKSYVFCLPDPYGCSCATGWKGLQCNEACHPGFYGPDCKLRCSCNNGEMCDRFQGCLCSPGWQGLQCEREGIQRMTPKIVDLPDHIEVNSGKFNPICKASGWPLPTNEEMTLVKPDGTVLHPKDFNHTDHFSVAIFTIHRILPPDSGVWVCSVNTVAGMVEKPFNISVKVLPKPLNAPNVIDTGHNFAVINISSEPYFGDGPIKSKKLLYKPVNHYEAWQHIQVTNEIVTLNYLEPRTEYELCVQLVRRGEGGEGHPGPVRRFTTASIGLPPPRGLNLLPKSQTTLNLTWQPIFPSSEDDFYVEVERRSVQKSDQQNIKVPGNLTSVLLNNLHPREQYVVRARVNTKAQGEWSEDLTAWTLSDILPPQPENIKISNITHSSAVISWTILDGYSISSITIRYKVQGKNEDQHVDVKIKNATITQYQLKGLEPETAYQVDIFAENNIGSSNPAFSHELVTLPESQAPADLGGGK

[5] = biological target: T2, integrin alphaVbeta3 protein (R&D …); assay: ELISA, integrin αVβ3 coated, Ang2 proteins at 5 µg/ml

T1 sequence (P06756 31-992 limits assumed, chain 1 of 2): as the sequence (P06756 31-992 limits assumed, chain 1 of 2) above
T1 sequence (P05556 21-728 limits assumed, chain 2 of 2): as the sequence (P05556 21-728 limits assumed, chain 2 of 2) above

Binder	decrease in Ang2 dependent cell adhesion of U87MG cells to Ang2-coated plates, peptide at 100 µg/ml (integrin on U87MG cells)	binding result [4]	also measured
EYWLGNEFVSQLTNQ [Ang2 derived peptide of SEQ ID No. 15 (Peptide 15)]	> 50%	–	–
Ang2 protein having FLAG sequences tagged at its N-terminal (FLAG-Ang2), wild type (ligand, it may include a signal peptide that is absent from the protein; also called FLAG-tagged Ang2; wild-type Ang2 protein) DYKDDDDKYNNFRKSMDSIGKKQYQVQHGSCSYTFLLPEMDNCRSSSSPYVSNAVQRDAPLEYDDSVQRLQVLENIMENNTQWLMKLENYIQDNMKKEMVEIQQNAVQNQTAVMIEIGTNLLNQTAEQTRKLTDVEAQVLNQTTRLELQLLEHSLSTNKLEKQILDQTSEINKLQDKNSFLEKKVLAMEDKHIIQLQSIKEEKDQLQVLVSKQNSIIEELEKKIVTATVNNSVLQKQQHDLMETVNNLLTMMSTSNSAKDPTVAKEEQISFRDCAEVFKSGHTTNGIYTLTFPNSTEEIKAYCDMEAGGGGWTIIQRREDGSVDFQRTWKEYKVGFGNPSGEYWLGNEFVSQLTNQQRYVLKIHLKDWEGNEAYSLYEHFYLSSEELNYRIHLKGLTGTAGKISSISQPGNDFSTKDGDNDKCICKCSQMLTGGWWFDACGPSNLNGMYYPQRQNTNKFNGIKWYYWKGSGYSLKATTMMIRPADF	–	binds	binding result [1]: binds; binding result [2]: binds; binding result [3]: binds
FLAG-Ang2 protein modified form (Q362A) (ligand, also called Q362A Ang2 protein; Q362A modified form) DYKDDDDKYNNFRKSMDSIGKKQYQVQHGSCSYTFLLPEMDNCRSSSSPYVSNAVQRDAPLEYDDSVQRLQVLENIMENNTQWLMKLENYIQDNMKKEMVEIQQNAVQNQTAVMIEIGTNLLNQTAEQTRKLTDVEAQVLNQTTRLELQLLEHSLSTNKLEKQILDQTSEINKLQDKNSFLEKKVLAMEDKHIIQLQSIKEEKDQLQVLVSKQNSIIEELEKKIVTATVNNSVLQKQQHDLMETVNNLLTMMSTSNSAKDPTVAKEEQISFRDCAEVFKSGHTTNGIYTLTFPNSTEEIKAYCDMEAGGGGWTIIQRREDGSVDFQRTWKEYKVGFGNPSGEYWLGNEFVSALTNQQRYVLKIHLKDWEGNEAYSLYEHFYLSSEELNYRIHLKGLTGTAGKISSISQPGNDFSTKDGDNDKCICKCSQMLTGGWWFDACGPSNLNGMYYPQRQNTNKFNGIKWYYWKGSGYSLKATTMMIRPADF	–	binds	invasion of U87MG cells through matrigel-coated transwell toward 5 µg/ml Ang2 protein, 48 hours (fraction of wild type Ang2) (integrin on U87MG cells): 0.5; binding level relative to the wild type Ang2 [5]: ≤ 50%
IYTLTFPNSTEEIKA [Ang2 derived peptide of SEQ ID No. 4]	> 50%	–	–
HTTNGIYTLTFPNST [Ang2 derived peptide of SEQ ID No. 3]	> 50%	–	–
LNYRIHLKGLTGTAG [Ang2 derived peptide of SEQ ID No. 24]	> 50%	–	–

Reference: US20160101154A1 (SAMSUNG ELECTRONICS, published 2016)
